Test results from patent publication US20200283507A1 (US Dept. of Health and Human Services, published 2020).

Key:
[1] = target: T1, Hu/NoV/GII.4/MD2004/2004/U.S. VLP (human norovirus GII.4); experiment: blockade ELISA: VLP binding to PGM type III
T1 construct: mature; baculovirus VLP; VP2 may be present; also called MD2004 VLP
Description: (§1) Pig Gastric Mucin Type III (PGM) (Sigma Chemicals) was used as a substrate for NoV VLP antibody-blockade assay as previously described. Briefly, PGM was resuspended in PBS at 5 mg/ml and coated onto 96 well U bottom polyvinyl plates Dynatech (Nunc, Thermo, USA) at 10 μg/ml in PBS for 4 hours. Plates were then blocked ON at 4° C. in 5% dry milk in 0.05% Tween₂₀-PBS. […] One hundred μl of VLPs-VHH mix were transferred to the PGM coated plates and incubated for 1 hour. Bound VLPs were detected by specific hyperimmune sera made in guinea pig, followed by anti-guinea pig IgG-HRP (KLP). ABTS/H₂O₂ was used as chromogen/substrate solution. All incubations were performed at room temperature and absorbance at 405 nm was measured. Mean % control binding, EC50 and criteria for determination of a blockade VHH were calculated as described above.

[2] = target: T2, Hu/NoV/GII.4/CHDC4871/1977/U.S. VLP (human norovirus GII.4); experiment: VLP ELISA
T2 construct: mature; baculovirus VLP; VP2 may be present

[3] = target: T3, Hu/NoV/GII.4/HS-191/2001/U.S. VLP (human norovirus GII.4); experiment: VLP ELISA
T3 construct: mature; baculovirus VLP; VP2 may be present

[4] = target: T4, Hu/NoV/Snow Mountain/GII.2/U.S. VLP (human norovirus GII.2); experiment: VLP ELISA
T4 construct: mature; baculovirus VLP; VP2 may be present

[5] = target: T5, Hu/NoV/GII.1/Hawaii/1971/U.S. VLP (human norovirus GII.1); experiment: VLP ELISA
T5 construct: mature; baculovirus VLP; VP2 may be present

[6] = target: T6, Hu/NoV/GII.2/Henryton/1971/U.S. VLP (human norovirus GII.2); experiment: VLP ELISA
T6 construct: mature; baculovirus VLP; VP2 may be present

[7] = target: T1, Hu/NoV/GII.4/MD2004/2004/U.S. VLP; experiment: VLP ELISA
[8] = target: T7, Hu/NoV/GII.4/MD145-12/1997/U.S. VLP (human norovirus GII.4); experiment: VLP ELISA
T7 construct: mature; baculovirus VLP; VP2 may be present

[9] = target: T8, Hu/NoV/GII.3/CHDC4031/1988/U.S. VLP (human norovirus GII.3); experiment: VLP ELISA
T8 construct: mature; baculovirus VLP; VP2 may be present

[10] = target: T9, Hu/NoV/GII.4/RockvilleD1/2012/U.S. VLP (human norovirus GII.4); experiment: VLP ELISA
T9 construct: mature; baculovirus VLP; VP2 may be present

[11] = target: T10, Hu/NoV/GII.7/DC119/U.S. VLP (human norovirus GII.7); experiment: VLP ELISA
T10 construct: mature; baculovirus VLP; VP2 may be present

[12] = target: T11, Hu/GII.6/Bethesda/2012/U.S. VLP (human norovirus GII.6); experiment: VLP ELISA
T11 construct: mature; baculovirus VLP; VP2 may be present

[13] = target: T7, Hu/NoV/GII.4/MD145-12/1997/U.S. VLP; experiment: blockade ELISA: VLP binding to synthetic HBGA H3
[14] = target: T7, Hu/NoV/GII.4/MD145-12/1997/U.S. VLP; experiment: blockade ELISA: VLP binding to saliva Ly+
Description: (§2) For this assay saliva positive for Ly antigen collected from a secretor individual was used. Saliva was boiled (95° C.) for 10 minutes immediately after collection, centrifuged for 5 minutes at 13000×g and the supernatants stored at −20° C. until used. ELISA 96 well U bottom polyvinyl plates Dynatech (Nunc, Thermo, EEUU) were coated with 100 μl/well of a 1/400 saliva dilution in 50 μM carbonate-bicarbonate buffer, pH 9.6. The plate was incubated overnight at 37° C. in a wet atmosphere. In parallel, serial two-fold dilutions of VHH starting from 8 ug/ml were mixed with 1.5 ug/ml of NoV VLP Norwalk and MD145 and incubated for 1h at 37° C. After 6 washes and a blocking step with 5% dry milk/0.05% Tween₂₀-PBS, 50 ul of each VHH-VLP mixture was transferred to the reaction plate, in duplicate. The assay was developed using a specific polyclonal antiserum made in guinea pig (1:10,000) followed by a peroxidase labeled anti-guinea pig IgG (1:2,000) and ABTS/H₂O₂ as substrate chromogen (KPL), 100 μl per well. Absorbance at 405 nm was measured. Mean % control binding, EC50 and criteria for determination of a blockade VHH were calculated as described above.

[15] = target: T1, Hu/NoV/GII.4/MD2004/2004/U.S. VLP; experiment: cell-based or functional assay
[16] = target: T7, Hu/NoV/GII.4/MD145-12/1997/U.S. VLP; experiment: cell-based or functional assay
[17] = target: T12, Hu/NoV/GI.1/Norwalk/1968/U.S. VLP (human norovirus GI.1, UniProt Q83884 1-530 (Norovirus (strain entry), limits assumed)); experiment: blockade ELISA: VLP binding to PGM type III
T12 construct: mature; full-length VP1 (ORF2) assembled as virus-like particle in baculovirus/Sf9; also called Norwalk VLP; NV
T12 sequence (looked up): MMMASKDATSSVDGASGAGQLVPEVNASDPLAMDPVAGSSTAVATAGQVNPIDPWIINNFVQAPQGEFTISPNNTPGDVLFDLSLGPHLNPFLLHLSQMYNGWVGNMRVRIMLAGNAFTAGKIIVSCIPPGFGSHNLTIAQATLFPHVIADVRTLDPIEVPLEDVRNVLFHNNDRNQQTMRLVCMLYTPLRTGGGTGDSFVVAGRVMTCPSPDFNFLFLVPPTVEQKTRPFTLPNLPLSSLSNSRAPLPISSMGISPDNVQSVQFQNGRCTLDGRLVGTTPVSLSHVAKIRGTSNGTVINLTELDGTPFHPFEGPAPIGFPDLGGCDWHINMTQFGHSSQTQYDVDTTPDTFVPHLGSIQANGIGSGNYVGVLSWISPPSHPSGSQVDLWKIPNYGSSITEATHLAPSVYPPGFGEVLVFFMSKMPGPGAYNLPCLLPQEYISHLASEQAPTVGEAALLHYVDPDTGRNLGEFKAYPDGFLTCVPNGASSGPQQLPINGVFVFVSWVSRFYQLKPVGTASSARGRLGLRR
Description: as §1

[18] = target: T12, Hu/NoV/GI.1/Norwalk/1968/U.S. VLP; experiment: VLP ELISA
[19] = target: T12, Hu/NoV/GI.1/Norwalk/1968/U.S. VLP; experiment: blockade ELISA: VLP binding to saliva Ly+
Description: as §2

[20] = target: T12, Hu/NoV/GI.1/Norwalk/1968/U.S. VLP; experiment: cell-based or functional assay
[21] = target: T12, Hu/NoV/GI.1/Norwalk/1968/U.S. VLP; experiment: blockade ELISA: VLP binding to synthetic HBGA H1
[22] = target: T13, Hu/NoV/GI.3/Desert-Shield395/1990/U.S. VLP (human norovirus GI.3); experiment: VLP ELISA
T13 construct: mature; baculovirus VLP; VP2 may be present

[23] = target: T14, Hu/NoV/GI.1/P7-587/2007/Stromstad/Sweden VLP (human norovirus GI.1); experiment: VLP ELISA
T14 construct: mature; baculovirus VLP; VP2 may be present; also called Norovirus 2007

[24] = target: T14, Hu/NoV/GI.1/P7-587/2007/Stromstad/Sweden …; experiment: cell-based or functional assay

B1: VHH 5.4 (VHH)
VHH: QVQLQQSGGGLVQPGGSLRLSCVASESTVSINIMGWYRQAPGKQRELVATITTGGTTNYADSVKGRFTISRDNAKNTVYLQMNSLEPEDTAVYYCNLKRRDLQARFGGYWGQGTQVTVSS
notes: llama VHH, MD2004 library; pHEN6, C-terminal His6 tag; also called clone 5.4
B1 was tested, and the EC50 [1] was 2.02 µg/mL, the “minimum concentration of VHH able to recognize 100 ng of VLP” value (from here on “minimum concentration of VHH able”) [2] was 0.5 ng/well and the “minimum concentration of VHH able” value [3] was 0.25 ng/well. For the same binder, the “minimum concentration of VHH able” value [4] was 2 ng/well, the “minimum concentration of VHH able” value [5] was 1 ng/well and the “minimum concentration of VHH able” value [6] was 2 ng/well. The “minimum concentration of VHH able” value [7] was 1 ng/well, the “minimum concentration of VHH able” value [8] was 4 ng/well and the “minimum concentration of VHH able” value [9] was 0.5 ng/well. For the same binder, the “minimum concentration of VHH able” value [10] was 0.5 ng/well, the “minimum concentration of VHH able” value [11] was 0.5 ng/well and the “minimum concentration of VHH able” value [12] was 1 ng/well. For the same binder, the EC50 [13] was 0.718 µg/mL, the EC50 [14] was 1.27 µg/mL and the “HAI titer, B Rh+ RBC” value [15] was 0.39 µg/mL. The “HAI titer, B Rh+ RBC” value [16] was 0.39 µg/mL.

B2: VHH 4.1 (VHH)
VHH: QVKLQQSGGGLVQPGGSLRLSCAASESTISINTLGWYRQAPGNQRELVATITTGGTTNYADSVKGRFTISRDNAKNTVYLQMNNLEPGDTAVYYCNLKRRDLQSRFGGYWGQGTQVTVSS
notes: llama VHH, MD2004 library; pHEN6, C-terminal His6 tag; also called clone 4.1
B2 was tested, and the EC50 [1] was 2.91 µg/mL, the “minimum concentration of VHH able” value [2] was 0.5 ng/well and the “minimum concentration of VHH able” value [3] was 0.5 ng/well. For the same binder, the “minimum concentration of VHH able” value [4] was 2 ng/well, the “minimum concentration of VHH able” value [5] was 1 ng/well and the “minimum concentration of VHH able” value [6] was 1 ng/well. For the same binder, the “minimum concentration of VHH able” value [7] was 2 ng/well, the “minimum concentration of VHH able” value [8] was 2 ng/well and the “minimum concentration of VHH able” value [9] was 2 ng/well. The “minimum concentration of VHH able” value [10] was 1 ng/well, the “minimum concentration of VHH able” value [11] was 0.5 ng/well and the “minimum concentration of VHH able” value [12] was 2 ng/well. The EC50 [13] was 0.712 µg/mL, the EC50 [14] was 1.38 µg/mL and the “HAI titer, B Rh+ RBC” value [15] was 0.19 µg/mL. The “HAI titer, B Rh+ RBC” value [16] was 0.39 µg/mL.

B3: VHH 13.1 (VHH)
VHH: QVKLQESGGGWVQAGGSLRLSCAASALTASITTMGWFRQTPEKEREFLAAINWTGDYKYYADSVKGRFTISRDNAKNTVDLQMNQLKPEDTAVYYCAASKIRNDIYLNDYTWYQYWGQGTQVTVSS
notes: llama VHH, Norwalk library, subtractive biopanning; His6 tag; also called 13.2; clone 13
In the case of B3, the EC50 [17] is reported as 1.29 µg/mL, the “minimum concentration of VHH able” value [18] is reported as 2 ng/well and the EC50 [19] is reported as 2.27 µg/mL. The “HAI titer, 0 Rh- RBC” value [20] was 0.19 µg/mL and the EC50 [21] was 2.03 µg/mL.

B4: VHH 7.3 (VHH)
VHH: QVKLQESGGGLVQPGGSLRLSCTASRSIFTRAMAWYRQAPGKQRELVAAIDSGDRTHYADSVKGRFTISRNNAKDTLYLQMNSLKSEDTAVYYCNANLGALLDYWGQGTQVTVSS
notes: llama VHH, Norwalk library; pHEN6, C-terminal His6 tag; also called clone 7.3
B4 was tested, and the “minimum concentration of VHH able” value [22] was 0.5 ng/well, the “minimum concentration of VHH able” value [23] was 0.5 ng/well and the “minimum concentration of VHH able” value [18] was 0.5 ng/well. For the same binder, the “HAI titer, 0 Rh- RBC” value [24] was 0.05 µg/mL and the “HAI titer, 0 Rh- RBC” value [20] was 0.39 µg/mL.

B5: VHH 6.3 (VHH)
VHH: QVQLQQSGGGLVQPGGSLRLSCAASGSIFSIHTMGWYRQAPGKQRELVTTITTGGTTNYADSVKGRFTISRDDAKNTVYLQMNNLKPEDTAVYYCYALIQTASTTWYRQYWGQGTQVTVSS
notes: llama VHH, Norwalk (GI.1) library; also called clone 6.3
B5 was tested, and the EC50 [17] was 0.661 µg/mL, the “minimum concentration of VHH able” value [23] was 0.5 ng/well and the “minimum concentration of VHH able” value [18] was 0.5 ng/well. For the same binder, the EC50 [19] was 2.04 µg/mL, the “HAI titer, 0 Rh- RBC” value [24] was 0.05 µg/mL and the “HAI titer, 0 Rh- RBC” value [20] was 0.19 µg/mL. It also gave an EC50 [21] of 1.01 µg/mL.
